In data set [1] the target is actin filaments (F-actin) of lily pollen tubes (lily (Lilium grandiflorum / Lilium longiflorum cv. Osnat)). As to the kind of experiment: cell-based or functional assay.
Data set [2] has as its target actin filaments (F-actin) of lily pollen tubes.

B1: Aspergillus niger B1 extracellular RNase (RNase B1) (protein)
chain: TIDTCSSDSPLSCQTDNEASCCFNSPGGSLLQTQFWDYDPSDGPSGSWTIHGLWPDNCDGTYQEYCDESREYSNITSILEAQNRTELLSYMKEYWPDYEGADEDESFWEHEWNKHGTCINTIEPSCYTDYYAQEEVGDFFQQVVDLFKTLDSYTALSDAGITPSEDATYKLSDIEDALAAIHDGYPPYVGCEDGALSQLYYYFNVKGSAIGGTYVASERLEDSNCKDSGIKYPPKYSSSKKIYGSSL
The molecule B1 registered an inhibition of lily pollen tube elongation, 1 uM enzymatically heat-inactivated RNase B1 (EI-RNase B1) in data set [1] of 55%. In data set [2], the “actin filament distribution in pollen tubes (TRITC-phalloidin staining)” value is given as “in RNase-treated pollen tubes masses of F-actin were accumulated at the tip cell wall”; the “lily pollen tube length in vitro, RNase B1 100 units/ml (16 ug/ml), 2 h (control about 300 um)” value is reported as “reached only 160 µm in length”; the “lily pollen tube length in vitro, autoclaved RNase B1 (control about 300 um)” value was “Boiling or autoclaving the RNase yielded pollen tubes of 130 and 170 µm in length, respectively”; the “lily pollen tube length in vitro, boiled RNase B1 (control about 300 um)” value is “Boiling or autoclaving the RNase yielded pollen tubes of 130 and 170 µm in length, respectively”.

These data come from patent US20080131419A1.
